Test results from US20180155451A1 (published 2018).
Positions count from the first letter of the chain named. Names and notes keep the numbering of the source.

T1: FcgRIIb (human, UniProt P31994 43-217)
T1 construct: extracellular domain; also called FcγRIIb; not shown: His tag attached to the C terminus
T1 sequence (looked up): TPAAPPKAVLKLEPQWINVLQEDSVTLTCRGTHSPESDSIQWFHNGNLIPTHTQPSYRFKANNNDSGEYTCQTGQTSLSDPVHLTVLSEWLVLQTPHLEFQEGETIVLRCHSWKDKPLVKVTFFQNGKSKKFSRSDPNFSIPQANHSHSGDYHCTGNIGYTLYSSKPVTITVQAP

T2: FcγRIIb extracellular domain with C-terminal His tag (human, UniProt P31994 43-217)
T2 construct: extracellular domain; Soluble receptor expressed in FreeStyle293 cells, used as analyte in Biacore; also called FcgRIIb; CD32B; not shown: His tag at the C terminus
T2 sequence (looked up): T1 sequence (looked up)

B1: GpH7-A5/GpH7-B3 variant Q295_18N/GpL16-k0 (antibody, human IgG1, kappa)
heavy 1: not shown
heavy 2: not shown
light: DIVMTQSPLSLPVTPGEPASISCQASESLVHSNRNTYLHWYLQKPGQSPQLLIYKVSNRFSGVPDRFSGSGSGTDFTLKISRVEAEDVGVYYCSQNTHVPPTFGQGTKVEIERTVAAPSVFIFPPSDEQLKSGTASVVCLLNNFYPREAKVQWKVDNALQSGNSQESVTEQDSKDSTYSLSSTLTLSKADYEKHKVYACEVTHQGLSSPVTKSFNRGEC
notes: mutation in one H chain only; also called He Ab Q295_18N; Q295N
B2: GpH7-A5/GpH7-B3 variant Q295_16H/GpL16-k0 (antibody, human IgG1, kappa)
heavy 1: not shown
heavy 2: not shown
light: B1 light
notes: mutation in one H chain only; also called He Ab Q295_16H; Q295H
B3: GpH7-A5/GpH7-B3 variant S239_01G/GpL16-k0 (antibody, human IgG1, kappa)
heavy 1: not shown
heavy 2: not shown
light: B1 light
notes: mutation in one H chain only; also called He Ab S239_01G; S239G
B4: H240-Kn061 (W236Y)/H240-Hl071/L73-k0 (antibody, human IgG1, kappa)
heavy 1: QDQLVQSGAEVKKPGASVKVSCKASGFNIKDTYIQWVRQAPGQGLEWMGRIDPLRKQTKYREKFEGRVTITADTSTNTAYMELSSLRSEDTAVYYCVRSGREFDYWGQGTLVTVSSASTKGPSVFPLAPSSKSTSGGTAALGCLVKDYFPEPVTVSWNSGALTSGVHTFPAVLQSSGLYSLSSVVTVPSSSLGTQTYICNVNHKPSNTKVDKKVEPKSCDKTHTCPPCPAPEYYYGPSVFLFPPKPKDTLMISRTPEVTCVVVDVSDEDPEVKFNWYVDGVEVHNAKTKPREEQYNATYRVVSVLTVLHQDWLNGKEYKCKVSNKALPAPIEKTISKAKGQPREPQVCTLPPSRDELTKNQVSLWCLVKGFYPSDIAVEWESNGQPENNYKTTPPVLDSDGSFFLYSKLTVDKSRWQQGNVFSCSVMHEALHNHYTQKSLSLSP
heavy 2: QDQLVQSGAEVKKPGASVKVSCKASGFNIKDTYIQWVRQAPGQGLEWMGRIDPLRKQTKYREKFEGRVTITADTSTNTAYMELSSLRSEDTAVYYCVRSGREFDYWGQGTLVTVSSASTKGPSVFPLAPSSKSTSGGTAALGCLVKDYFPEPVTVSWNSGALTSGVHTFPAVLQSSGLYSLSSVVTVPSSSLGTQTYICNVNHKPSNTKVDKKVEPKSCDKTHTCPPCPAPELLGGPSVFLFPPKPKDTLMISRTPEVTCVVVDVSHEDPEVKFNWYVDGVEVHNAKTKPREEQYNSTYRVVSVLTVLHQDWLNGKEYKCKVSNDALPMPIEETISKAKGQPREPQVYTLPPSRCELTKNQVSLSCAVKGFYPSDIAVEWESNGQPENNYKTTPPVLDSDGSFFLVSKLTVDKSRWQQGNVFSCSVMHEALHNHYTQKSLSLSP
light: DIQMTQSPSSLSASVGDRVTITCRASQDIHKYIAWYQQKPGQAPRLLIQYTSTLQPGVPSRFSGSGSGTDYTFTISSLQPEDIATYYCLQYEQLRTFGGGTKVEIKRTVAAPSVFIFPPSDEQLKSGTASVVCLLNNFYPREAKVQWKVDNALQSGNSQESVTEQDSKDSTYSLSSTLTLSKADYEKHKVYACEVTHQGLSSPVTKSFNRGEC
B5: H240-Kn061 (Y234A)/H240-Hl071/L73-k0 (antibody, human IgG1, kappa)
heavy 1: B4 heavy 1 with Y233A, Y235W
heavy 2: B4 heavy 2
light: B4 light
B6: H240-Kn061 (Y235F)/H240-Hl071/L73-k0 (antibody, human IgG1, kappa)
heavy 1: B4 heavy 1 with Y234F, Y235W
heavy 2: B4 heavy 2
light: B4 light
B7: H240-Kn061 (Y235M)/H240-Hl071/L73-k0 (antibody, human IgG1, kappa)
heavy 1: B4 heavy 1 with Y234M, Y235W
heavy 2: B4 heavy 2
light: B4 light
B8: H240-Kn061 (Y235L)/H240-Hl071/L73-k0 (antibody, human IgG1, kappa)
heavy 1: B4 heavy 1 with Y234L, Y235W
heavy 2: B4 heavy 2
light: B4 light
B9: H240-Kn061 (Y234S)/H240-Hl071/L73-k0 (antibody, human IgG1, kappa)
heavy 1: B4 heavy 1 with Y233S, Y235W
heavy 2: B4 heavy 2
light: B4 light
B10: H240-Kn061 (Y234G)/H240-Hl071/L73-k0 (antibody, human IgG1, kappa)
heavy 1: B4 heavy 1 with Y233G, Y235W
heavy 2: B4 heavy 2
light: B4 light
B11: H240-Kn061 (Y235N)/H240-Hl071/L73-k0 (antibody, human IgG1, kappa)
heavy 1: B4 heavy 1 with Y234N, Y235W
heavy 2: B4 heavy 2
light: B4 light
B12: H240-Kn061 (Y234H)/H240-Hl071/L73-k0 (antibody, human IgG1, kappa)
heavy 1: B4 heavy 1 with Y233H, Y235W
heavy 2: B4 heavy 2
light: B4 light
B13: H240-Kn061 (Y235E)/H240-Hl071/L73-k0 (antibody, human IgG1, kappa)
heavy 1: B4 heavy 1 with Y234E, Y235W
heavy 2: B4 heavy 2
light: B4 light
B14: H240-Kn061 (Y235T)/H240-Hl071/L73-k0 (antibody, human IgG1, kappa)
heavy 1: B4 heavy 1 with Y234T, Y235W
heavy 2: B4 heavy 2
light: B4 light
B15: H240-Kn061 (Y235W)/H240-Hl071/L73-k0 (antibody, human IgG1, kappa)
heavy 1: B4 heavy 1 with Y234W, Y235W
heavy 2: B4 heavy 2
light: B4 light
notes: also called H240-Kn061 Y2351N
B16: GpH7-A5/GpH7-B3 variant G237_11K/GpL16-k0 (antibody, human IgG1, kappa)
heavy 1: not shown
heavy 2: not shown
light: B1 light
notes: Heterodimerized anti-glypican-3 IgG1; substitution in only one H chain; also called G237K; He Ab
B17: GpH7-A5/GpH7-B3 variant P238_01G/GpL16-k0 (antibody, human IgG1, kappa)
heavy 1: not shown
heavy 2: not shown
light: B1 light
notes: Heterodimerized anti-glypican-3 IgG1; substitution in only one H chain; also called P238G; He Ab
B18: GpH7-A5/GpH7-B3 variant G237_14T/GpL16-k0 (antibody, human IgG1, kappa)
heavy 1: not shown
heavy 2: not shown
light: B1 light
notes: Heterodimerized anti-glypican-3 IgG1; substitution in only one H chain; also called G237T; He Ab
B19: GpH7-A5/GpH7-B3 variant G237_16H/GpL16-k0 (antibody, human IgG1, kappa)
heavy 1: not shown
heavy 2: not shown
light: B1 light
notes: Heterodimerized anti-glypican-3 IgG1; substitution in only one H chain; also called G237H; He Ab
B20: GpH7-A5/GpH7-B3 variant G237_12R/GpL16-k0 (antibody, human IgG1, kappa)
heavy 1: not shown
heavy 2: not shown
light: B1 light
notes: Heterodimerized anti-glypican-3 IgG1; substitution in only one H chain; also called G237R; He Ab

Each binder was assayed against T3, FcγRIa extracellular domain with C-terminal His tag (human, UniProt P12314 16-292) (assay: SPR Biacore, relative FcγRIa binding vs GpH7-A5/GpH7-B3/GpL16-k0).
T3 construct: extracellular domain; also called FcgRI; CD64; not shown: His tag at the C terminus
T3 sequence (P12314 16-292): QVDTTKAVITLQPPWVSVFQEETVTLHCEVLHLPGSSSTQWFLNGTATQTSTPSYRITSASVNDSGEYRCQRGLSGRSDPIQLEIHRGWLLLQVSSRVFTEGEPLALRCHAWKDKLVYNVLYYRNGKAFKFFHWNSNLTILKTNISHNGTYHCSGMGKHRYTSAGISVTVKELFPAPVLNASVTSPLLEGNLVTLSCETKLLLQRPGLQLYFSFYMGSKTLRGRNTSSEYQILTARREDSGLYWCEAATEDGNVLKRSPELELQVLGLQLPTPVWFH

| He/Con_1a | Binder |
| --- | --- |
| 102 % of HeCon Ab (=100) | B1 |
| 102 % of HeCon Ab (=100) | B2 |
| 101 % of HeCon Ab (=100) | B3 |

The binders below were run against T1, FcgRIIb (assay: SPR (Biacore); KD of H240-Kn061/H240-Hl071/L73-k0 divided by KD of the variant).
Description: (§1) The antibodies were assessed for the binding to each FcgR. […] The resultant value was defined as relative KD, and used as an assessment indicator.
(§2) Analysis of interaction between obj ective antibody and the FcγR was carried out using Biacore T100 (GE Healthcare), Biacore T200, Biacore A100, and Biacore 4000. HBS-EP+ (GE Healthcare) was used as the running buffer, and the measurement temperature was set to 25° C. Chips produced by immobilizing the antigen peptide by the amine coupling method to a Series S sensor Chip CM5 (GE Healthcare), chips produced by allowing preliminarily biotinylated antigen peptides to interact with and immobilize onto a Series S Sensor Chip SA (certified) (GE Healthcare), chips produced by immobilizing Protein L (ACTIGEN, BioVision) to Series S Sencor Chip CM5 (GE Healthcare), or chips produced by immobilizing Protein A/G (Thermo Scientific) to Series S Sencor Chip CM5 (GE Healthcare) were used. Antibodies of interest were captured onto these chips, and allowed to interact to each FcγR diluted with running buffer.

| Relative KD | Binder |
| --- | --- |
| 0.8 | B4 |
| 1.2 | B5 |
| 1.2 | B6 |
| 0.7 | B7 |
| 0.9 | B8 |
| 1 | B9 |
| 0.9 | B10 |
| 0.7 | B11 |
| 1.3 | B12 |
| 0.8 | B13 |
| 0.6 | B14 |
| 1.3 | B15 |

Each binder was assayed against T4, FcgRIIIa F (human, UniProt P08637 17-208) in the same assay as above.
T4 construct: extracellular domain; also called FcγRIIIa F; 3aF; not shown: His tag attached to the C terminus
Description: as §1, §2

T4 sequence (P08637 17-208): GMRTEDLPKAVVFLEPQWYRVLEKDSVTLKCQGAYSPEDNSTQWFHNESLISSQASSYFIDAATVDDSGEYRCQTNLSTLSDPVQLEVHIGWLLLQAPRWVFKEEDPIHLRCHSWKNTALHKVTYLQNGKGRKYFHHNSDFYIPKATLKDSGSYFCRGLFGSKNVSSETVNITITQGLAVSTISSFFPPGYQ

| Relative KD | Binder |
| --- | --- |
| 0.8 | B4 |
| 0.8 | B5 |
| 1.3 | B6 |
| 1.7 | B7 |
| 1.8 | B8 |
| 0.9 | B9 |
| 0.8 | B10 |
| 1.3 | B11 |
| 0.8 | B12 |
| 2.2 | B13 |
| 0.9 | B14 |
| 1.1 | B15 |

The binders below were run against T5, FcgRIIIa V (human, UniProt P08637 17-208) in the same assay as above.
T5 construct: extracellular domain; also called FcγRIIIa V; not shown: His tag attached to the C terminus
Description: as §1, §2

T5 sequence (P08637 17-208 F176V limits assumed): as the sequence (P08637 17-208) above, with F160V counted along it

| Relative KD | Binder |
| --- | --- |
| 1.2 | B4 |
| 0.9 | B5 |
| 1.5 | B6 |
| 1.8 | B7 |
| 1.5 | B8 |
| 0.9 | B9 |
| 0.9 | B10 |
| 2 | B11 |
| 0.9 | B12 |
| 3.2 | B13 |
| 1.1 | B14 |
| 1.3 | B15 |

These binders were tested against T6, FcγRIa extracellular domain with C-terminal His tag (human, UniProt P12314 16-292) (assay: SPR (Biacore); ratio of He/Con_1a (FcγRIa) to He/Con_2b (FcγRIIb) of the same antibody).
T6 construct: extracellular domain; Soluble receptor expressed in FreeStyle293 cells, used as analyte in Biacore; also called FcgRI; CD64; not shown: His tag at the C terminus
T6 sequence (P12314 16-292): as the sequence (P12314 16-292) above

| Ia/IIb He_1a/2b | Binder |
| --- | --- |
| 7.05 | B16 |
| 1.66 | B17 |
| 1.5 | B18 |
| 1.32 | B19 |
| 6.71 | B20 |

The binders below were run against T6, FcγRIa extracellular domain with … (assay: SPR (Biacore), antibody captured via antigen peptide, FcγR as analyte; binding relative to GpH7-A5/GpH7-B3/GpL16-k0 = 100).

| He/Con_1a | Binder |
| --- | --- |
| 63.3 % of control (GpH7-A5/GpH7-B3/GpL16-k0 = 100) | B16 |
| 92.9 % of control (GpH7-A5/GpH7-B3/GpL16-k0 = 100) | B17 |
| 82.3 % of control (GpH7-A5/GpH7-B3/GpL16-k0 = 100) | B18 |
| 72.6 % of control (GpH7-A5/GpH7-B3/GpL16-k0 = 100) | B19 |
| 65.8 % of control (GpH7-A5/GpH7-B3/GpL16-k0 = 100) | B20 |

The binders below were run against T2, FcγRIIb extracellular domain with … in the same assay as above.

| He/Con_2b | Binder |
| --- | --- |
| 56 % of control (GpH7-A5/GpH7-B3/GpL16-k0 = 100) | B17 |
| 54.8 % of control (GpH7-A5/GpH7-B3/GpL16-k0 = 100) | B18 |
| 55.2 % of control (GpH7-A5/GpH7-B3/GpL16-k0 = 100) | B19 |
